The numbers were not newly measured in article PMC4965862, which cites them from elsewhere.

The data set has as its target Cys45 (UniProt position 45, AFTGICQGELD). The conditions noted are these: reduced enzyme (Cys45 thiol/thiolate).

As a reminder, the pKa is the negative logarithm of the acid dissociation constant. In the case of “Alkyl hydroperoxide reductase E (AhpE), one-cysteine peroxiredoxin (Mycobacterium tuberculosis)”, the pKa is 5.2.
